Test results published in PMC7138525 (Cell reports, 2020).

T1: HCB, recombinant BoNT preparation coated for ELISA (Clostridium botulinum, BoNT/B subtype B1)
T1 chain: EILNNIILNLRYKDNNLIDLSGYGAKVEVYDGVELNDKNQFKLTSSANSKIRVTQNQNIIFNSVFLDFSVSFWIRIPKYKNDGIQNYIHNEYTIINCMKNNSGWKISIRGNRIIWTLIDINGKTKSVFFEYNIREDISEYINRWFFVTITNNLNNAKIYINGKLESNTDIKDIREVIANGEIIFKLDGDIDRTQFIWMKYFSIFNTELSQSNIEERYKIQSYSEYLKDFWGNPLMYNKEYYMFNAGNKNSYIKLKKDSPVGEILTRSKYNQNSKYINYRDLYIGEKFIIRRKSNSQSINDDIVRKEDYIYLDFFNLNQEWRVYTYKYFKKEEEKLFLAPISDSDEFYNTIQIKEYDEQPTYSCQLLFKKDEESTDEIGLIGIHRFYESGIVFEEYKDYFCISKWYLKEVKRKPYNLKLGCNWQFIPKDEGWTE


Tests used:
[1] = target: T2, HCB, receptor-binding domain of BoNT/B1 (E859–E1291) (UniProt P10844); experiment: crystal structure
[2] = target: T1, HCB, recombinant BoNT preparation …; experiment: ELISA
[3] = target: T2, HCB, receptor-binding domain of BoNT/B1 …; experiment: SEC

Binder	binding result [2]	also measured
VHH JLI-G10 (VHH) VHH: QVQLVESGGGLVQAGGSLRLSCAASILTYDLDYYYIGWVRQAPGKEREGVSCISSTDGATYYADSVKGRFTISRNNAKNTVYLQMNNLKPEDTAIYYCAAAPLAGRYCPASHEYGYWGQGTQVTVSS		binding result [1]: binds
VHH JLI-G10, His6-tagged thioredoxin fusion with carboxy-terminal E-tag (VHH) VHH: QVQLVESGGGLVQAGGSLRLSCAASILTYDLDYYYIGWVRQAPGKEREGVSCISSTDGATYYADSVKGRFTISRNNAKNTVYLQMNNLKPEDTAIYYCAAAPLAGRYCPASHEYGYWGQGTQVTVSS	binds	
VHH JLI-H11 (from GST fusion) (VHH) VHH: QVQLVESGGGLVQPGESLRLSCGASGMSLDYYAIAWYRQAPGKEREGVSCISVSGSSAQYLDSVRGRFIISKDNTKSTAYLQMNSLKPEDTAVYYCAALADCAGYASLTFDFDSWGQGTQVAVSS		binding result [3]: binds
VHH JLI-H11, His6-tagged thioredoxin fusion with carboxy-terminal E-tag (VHH) VHH: QVQLVESGGGLVQPGESLRLSCGASGMSLDYYAIAWYRQAPGKEREGVSCISVSGSSAQYLDSVRGRFIISKDNTKSTAYLQMNSLKPEDTAVYYCAALADCAGYASLTFDFDSWGQGTQVAVSS	binds	
VHH JLK-G12 (from GST fusion) (VHH) VHH: QVQLVESGGGLVQAGGSLRLSCAASEFRAEHFAVGWFRQAPGKEREGVSCVDASGDSTAYADSVKGRFTISRDNNKNVVYLQMDSLEPEDTGDYYCGASYFTVCAKSMRKIEYRYWGQGTQVTVSS		binding result [3]: binds
VHH JLK-G12, His6-tagged thioredoxin fusion with carboxy-terminal E-tag (VHH) VHH: QVQLVESGGGLVQAGGSLRLSCAASEFRAEHFAVGWFRQAPGKEREGVSCVDASGDSTAYADSVKGRFTISRDNNKNVVYLQMDSLEPEDTGDYYCGASYFTVCAKSMRKIEYRYWGQGTQVTVSS	binds	
VHH JLO-G11, His6-tagged thioredoxin fusion with carboxy-terminal E-tag (VHH) VHH: QVQLAESGGGLVQPGGSLRLSCEASGFHLEHFAVGWFRQAPGKEREGVSCISASGDSTTYADSVKGRSTISKDNAKNAVYLQMDSLRPEDTGDYYCAASHFSVCGKNIRKIEYRYWGQGTPVTVSS	binds	
